The target of test [1] is KcsA-Kv1.3 turret-only chimera (Streptomyces lividans | human). Description: ELISA. (An ELISA detects its analyte on a solid surface through an enzyme-linked reagent.)
In test [2] the target is KcsA-Kv1.1 turret-filter chimera (Streptomyces lividans | human). As to the kind of experiment: ELISA.
In test [3] the target is KcsA-Kv1.2 turret-filter chimera (Streptomyces lividans | human). As to the kind of experiment: ELISA.
Test [4] addresses KcsA-Kv1.2 turret-only chimera (Streptomyces lividans | human). As to the kind of experiment: ELISA.
The target of test [5] is KcsA-Kv1.1 turret-only chimera (Streptomyces lividans | human). Description: ELISA.
Test [6] concerns the target KcsA-Kv1.3 turret-filter chimera (Streptomyces lividans | human). As to the kind of experiment: ELISA.
For test [7], the target named is KcsA-Kv1.2 turret-filter chimera (Streptomyces lividans | human). As to the kind of experiment: native gel or EMSA. In general terms: In EMSA bound probe runs differently from free probe, usually more slowly.
Test [8] addresses KcsA-Kv1.3 turret-filter chimera (Streptomyces lividans | human). Description: SDS-PAGE and western blot; purified proteins, 0.5 ug/well, Tris-Glycine gradient gel, 200 V 55 min; western blot with anti-His antibody; monomers and tetramers by migration. (Immunoblotting shows a protein as a band on a membrane.)
Test [9] has the same target. Description: native gel or EMSA.
Test [10] has as its system human Kv1.3 channel (hKv1.3). As to the kind of experiment: Whole-cell patch-clamp of phage-displayed toxins, hKv1.3 in human lymphocytes. Format: cell-based. The note with it: perfusion concentration; phage-displayed toxin; experimentally titrated; N = 3. The protocol: Human Kv1.3 currents were recorded from activated peripheral blood mononuclear cells (see below) 3 to 4 days after activation. Heparinized human peripheral venous blood was obtained from healthy volunteers. Mononuclear cells were separated through Histopaque-1077 density gradient centrifugation. Collected cells were washed twice with Ca^2+- and Mg^2+-free Hanks’ solution containing 25 mM Hepes buffer, pH 7.4. Cells were cultured for 3 to 4 days in 24-well culture plates in a 5% CO2 incubator at 37 °C, in RPMI 1640 medium supplemented with 10% fetal calf serum (Sigma-Aldrich), 100 μg/ml penicillin, 100 μg/ml streptomycin, and 2 mM L-glutamine (density, 0.5 × 10^6 cells per ml). Phytohemagglutinin A (Sigma-Aldrich) was added to the medium at 10 μg/ml to amplify the Kv1.3 expression. Cells were washed gently twice with 2 ml of ECS for the patch-clamp experiments.
Conventional whole-cell patch-clamp electrophysiology was used to record ionic currents. Micropipettes were pulled from GC150F-7.5 borosilicate capillaries (Harvard Apparatus) with tip diameters between 0.5 and 1 μm resulting in a tip resistance of 2 to 8 MΩ in the extracellular (bath) solution. All measurements were carried out by using Axopatch 200B amplifier connected to a personal computer using Axon Digidata 1550A data acquisition hardware and Pclamp10.7 software (https://support.moleculardevices.com/s/article/Axon-pCLAMP-10-Electrophysiology-Data-Acquisition-Analysis-Software-Download-Page). The holding potential was −120 mV. Records were discarded when leak at the holding potential was >10% of peak current at the test potential. Experiments were performed at room temperature (20–24 °C). Before analysis, whole-cell current traces were corrected for ohmic leakage and digitally filtered with a three-point boxcar smoothing filter.
Solutions: all salts and components of the solutions were purchased from Sigma Aldrich. The extracellular (bath) solution (ECS) contained 145 mM NaCl, 5 mM KCl, 2.5 mM CaCl2, 1 mM MgCl2, 10 mM Hepes, and 5.5 mM glucose (pH 7.35 with NaOH), while the intracellular (pipette) solution (ICS) contained 140 mM KF, 2 mM MgCl2, 1 mM CaCl2, 11 mM EGTA, and 10 mM Hepes (pH 7.22 with KOH). The osmolarity of the ECS and ICS were 302 mOsM.
Native peptides, phage-expressed peptides, and positive controls used for them were dissolved in ECS supplemented with 0.1 mg/ml bovine serum albumin (BSA; Sigma-Aldrich Hungary). Bath perfusion around the measured cell with different extracellular solutions was achieved using a gravity flow micro perfusion system using a rate of 0.5 ml/min. Excess fluid was removed continuously.
Voltage protocols: For measurement of Kv1.1 to 1.3 currents, voltage steps to +50 mV were applied from a holding potential of −120 mV and the peak current was measured every 15 s. For Kv1.3 currents, 15-ms-long depolarizing pulses were applied. For Kv1.1, 50-ms-long–activating stimuli were used. Kv1.2 currents were evoked by 200-ms-long pulses. […] The remaining current fraction at a given molar concentration was calculated as I/I0, where I0 is the peak current in the absence and I is the peak current at equilibrium block or […] after ∼2 min perfusion by the investigated peptide/phage.
Phage display test solutions were prepared according to routine phage display protocols ([62]). Phosphorylated and annealed oligonucleotides encoding the peptide construct were ligated into linearized pAS62 phagemid vector (https://patents.google.com/patent/WO2022144560A1/en) at a vector/insert ratio of 1:3. The final phagemid construct harbored a signal sequence followed by the peptide of interest, a linker sequence ([…]), and the C-terminal part of the P3 coat protein (amino acids: 216-424 of NP_510891.1). Chemically competent XL1-Blue E. coli cells (2022249, Agilent) were transformed with the ligation product and then streaked onto ampicillin (100 μg/ml) containing LB/Amp plates and incubated for 16 h at 37 °C.

In test [11] the target is KcsA-Kv1.3 turret-only chimera (Streptomyces lividans | human). As to the kind of experiment: SDS-PAGE and western blot; purified proteins, 0.5 ug/well, Tris-Glycine gradient gel, 200 V 55 min; western blot with anti-His antibody; monomers and tetramers by migration.
The target is the same in test [12]. Description: native gel or EMSA.
In test [13] the target is human Kv1.3 voltage-gated potassium channel on activated human lymphocytes (human (endogenous in peripheral blood mononuclear cells)) (UniProt P22001).
human Kv1.3 voltage-gated potassium channel on activated human lymphocytes (human (endogenous in peripheral blood mononuclear cells)), sequence (P22001 whole entry): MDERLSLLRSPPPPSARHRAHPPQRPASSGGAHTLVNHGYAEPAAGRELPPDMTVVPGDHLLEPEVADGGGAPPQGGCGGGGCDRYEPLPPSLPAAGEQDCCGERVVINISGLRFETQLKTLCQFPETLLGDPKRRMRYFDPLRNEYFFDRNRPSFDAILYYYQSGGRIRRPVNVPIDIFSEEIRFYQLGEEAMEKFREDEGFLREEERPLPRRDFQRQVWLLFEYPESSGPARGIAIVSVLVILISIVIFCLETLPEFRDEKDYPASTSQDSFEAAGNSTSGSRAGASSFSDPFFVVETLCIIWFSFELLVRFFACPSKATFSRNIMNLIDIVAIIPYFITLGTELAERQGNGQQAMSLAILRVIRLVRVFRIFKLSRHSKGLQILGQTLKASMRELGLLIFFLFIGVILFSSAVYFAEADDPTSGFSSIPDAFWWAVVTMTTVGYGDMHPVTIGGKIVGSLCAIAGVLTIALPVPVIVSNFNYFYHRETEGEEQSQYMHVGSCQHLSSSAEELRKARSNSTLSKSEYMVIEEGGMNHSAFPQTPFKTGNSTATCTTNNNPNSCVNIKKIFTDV
Test [14] has the same target. This is another data set of the same source.
Test [15] has as its target KcsA-Kv1.2 turret-only chimera (Streptomyces lividans | human). As to the kind of experiment: native gel or EMSA.
The target of test [16] is KcsA-Kv1.1 turret-only chimera (Streptomyces lividans | human). As to the kind of experiment: SDS-PAGE and western blot; purified proteins, 0.5 ug/well, Tris-Glycine gradient gel, 200 V 55 min; western blot with anti-His antibody; monomers and tetramers by migration.
Test [17] has the same target. As to the kind of experiment: native gel or EMSA.
Test [18] deals with KcsA-Kv1.1 turret-filter chimera (Streptomyces lividans | human). As to the kind of experiment: SDS-PAGE and western blot; purified proteins, 0.5 ug/well, Tris-Glycine gradient gel, 200 V 55 min; western blot with anti-His antibody; monomers and tetramers by migration.
Test [19] shares this target. Description: native gel or EMSA.

The values below come from PMC11002876, “KcsA-Kv1.x chimeras with complete ligand-binding sites provide improved predictivity for screening selective Kv1.x blockers” (The Journal of Biological Chemistry, 2024).

For the molecule “Kaliotoxin-1, synthetic peptide (from UniProt P24662 1-38)”, the IC50 in test [1] was found to be 0.416 nM; in test [2] it was 1.49 nM; in [3], 205 nM; in test [4], 0.185 nM; in [5] it was 1.27 nM; in test [6], 98.2 nM.

As to KcsA-Kv1.2 turret-filter chimera, the stoichiometry N in test [7] was determined as 4.

As for KcsA-Kv1.3 turret-filter chimera, the stoichiometry N in test [8] and in test [9] was 4 throughout.

Take “KTX1-phage: KTX1 fused to the P3 coat protein of M13 phage with an eight amino acid linker (GVEINVKCSGSPQCLKPCKDAGMRFGKCMNRKCHCTPK; not fully specified; left off: M13 P3 coat protein C-terminal part (amino acids 216-424 of NP_510891.1) behind the linker GSASSATR, C-terminal, kept)”: the “phage concentration giving approximate 50% block of hKv1.3 current” value in test [10] is reported as ~3.6 × 10^13 particle/ml.

On to KcsA-Kv1.3 turret-only chimera, for which the stoichiometry N in test [11] and in test [12] was 4 throughout.

As to “Vm24 toxin displayed on M13 phage as a fusion to the P3 coat protein (peptide)”, the phage concentration that gave a similar (50-70%) inhibition of the hKv1.3 current, whole-cell patch-clamp on human lymphocytes in [13] is 6e+10 particle/ml. The estimated relative potency calculated from the phage concentration required to reach 50% blocking effect on the Kv1.3 current (relative potency) in test [14] was 1.

In the case of “Hongotoxin-1, synthetic peptide (from UniProt P59847 1-39)”, the IC50 in test [1] is 0.671 nM; in test [6] it was 0.108 nM.

As to KcsA-Kv1.2 turret-only chimera, the stoichiometry N in test [15] was determined as 4.

As for KcsA-Kv1.1 turret-only chimera, the stoichiometry N in test [16] and in [17] was 4 throughout.

Turning to Vm24 toxin, synthetic peptide, the IC50 in [1] stood at 0.577 nM; in [6], 0.036 nM.

KcsA-Kv1.1 turret-filter chimera: the stoichiometry N in test [18] and in test [19] was 4 each time.

For “Stichodactyla toxin ShK, synthetic peptide”, the IC50 was determined as 0.271 nM in test [2], 15.9 nM in test [3], 0.07 nM in [4] and 0.317 nM in test [5].

VSCTGSKDCYAPCRKQTGCPNAKCINKSCKCYGC [Maurotoxin, synthetic peptide]: the IC50 is more than 1000 nM in test [2], 0.129 nM in test [3], more than 1000 nM in test [4] and more than 1000 nM in test [5].

As usually defined, the IC50 is the concentration that gives 50% inhibition. As usually defined, the stoichiometry N is the number of molecules, sites or subunits per partner or assembly.
